A short description of data set [1]: Specificity of LT3000 against other lipids and proteins. The data set is classed as binding. As to conditions: over 100 lipids and proteins incl. over 20 bioactive lipids. The text has this: The murine antibody is a full-length IgG1k isotype antibody composed of two identical light chains and two identical heavy chains with a total molecular weight of 155.5 kDa.

The nature of data set [2]: Competition ELISA (18:1 LPA coat), competitor 16:0 LPA. The data set is classed as binding. As to conditions: maximum inhibition. Here is the method: (§1) Many isoforms of LPA have been identified to be biologically active and it is preferable that the mAb recognize all of them to some extent to be of therapeutic relevance. The specificity of the anti-LPA mAbs was evaluated utilizing a competition assay in which the competitor lipid was added to the antibody-immobilized lipid mixture.
(§2) Competition ELISA assays were performed with the anti-LPA mAbs to assess their specificity. 18:1 LPA was captured on ELISA plates. Each competitor lipid (up to 10 uM) was serially diluted in BSA (1 mg/ml)-PBS and then incubated with the mAbs (3 nM). Mixtures were then transferred to LPA coated wells and the amount of bound antibody was measured with a secondary antibody. Data are normalized to maximum signal (A450) and are expressed as percent inhibition. Assays were performed in triplicate. IC50: Half maximum inhibition concentration; MI: Maximum inhibition (% of binding in the absence of inhibitor); - - -: not estimated because of weak inhibition. A high inhibition result indicates recognition of the competitor lipid by the antibody.
On the technique in general: In an ELISA, binding on a coated surface is turned into a signal by an enzyme label.

Data set [3] is described as follows: Competition ELISA specificity, competitor S1P. As to conditions: maximum inhibition, n = 3. Format: binding. Here is the method: The specificity of the anti-LPA mAbs was assessed for their binding to LPA related biolipids such as distearoyl-phosphatidic acid, lysophosphatidylcholine, S1P, ceramide and ceramide-1-phosphate.
Data set [4] is described as follows: Competition ELISA (18:1 LPA coat), competitor 14:0 LPA. As to conditions: maximum inhibition (% of binding in the absence of inhibitor). Here is the method:
as §1, §2

The nature of data set [5]: Pharmacokinetics of Lpathomab in mice. Format: in vivo. Here is the method:
Preliminary PK studies were conducted with Lpathomab. For IV dosed groups, mice were injected with a single 30 mg/kg dose and sacrificed at time points up to 15 days. Antibody was also given via i.p. administration and animals were sacrificed during the first 24 hrs to compare levels of mAb in the blood over this period of time for different routes of delivery. Pharmacokinetic parameters were assessed by WinNonlin. Three mice were sacrificed at each time point and plasma samples were collected and analyzed for mAb levels by ELISA.

For another data set, the system named is SKOV3 cell migration. The data set can be described thus: SKOV3 migration assay. The data set is classed as cell-based, human. The following applies: Lpathomab 150 μg/mL; 1 μM 18:1 LPA; n = 3.
The subject of another data set is B16-F10 murine melanoma. Nature of the data set: B16-F10 murine melanoma experimental lung metastasis. Details: species or system C57BL/6 mice. The following applies: mouse, in vivo. Here is the method: Study: The highly metastatic murine melanoma (B16-F10) was used to examine the therapeutic effect of anti-LPA mAbs on metastasis in vivo. […] 4 week old female (C57BL/6) mice received an injection of B16-F10 murine melanoma tumor cells (100 uL of 5×10^4 cells/animal) via the tail vein. Mice (10 per group) were administered 25 mg/kg of the anti-LPA mAb (either B3 or B7) or saline every three days by i.p. injection. After 18 days, lungs were harvested and analyzed. The pulmonary organs are the preferred metastatic site of the melanoma cells, and were therefore closely evaluated for metastatic nodules. The lungs were inflated with 10% buffered formalin via the trachea, in order to inflate and fix simultaneously, so that even small foci could be detectable on histological examination. Lungs were separated into five lobes and tumors were categorized by dimension (large >5 mm; medium 1-4 mm; small <1 mm) and counted under a dissecting microscope. […] For animals treated with mAb B3, large tumors were reduced by 21%, medium tumors by 17% and small tumors by 22%. Statistical analysis by student's T-test gave a p<0.05 for number of small tumors in animals treated with mAb B3 vs saline.

A further data set is described as follows: Thermostability (Tm). The data set is classed as physicochemical. Here is the method:
The thermostability of the humanized antibodies were studied by measuring their LPA-binding affinity (EC50) after heating using the direct binding ELISA. Antibodies dissolved in PBS (Cellgo, Cat. No 021-040) were diluted to 25 ug/ml and incubated at 60° C., 65° C., 70° C., 75° C. and 80° C. for 10 min. Prior to increasing the temperature, 10 ul of each sample was removed and diluted with 90 ul of PBS and stored on ice. The samples were then vortexed briefly and the insoluble material was removed by centrifugation for 1 min at 13,000 rpm. The binding activity of the supernatant was determined using the direct LPA-binding ELISA and compared to a control, which consisted of the same sample without heat treatment.

A short description of data set [6]: Surface plasmon resonance, 12:0 LPA on GLC sensor chip. The data set is classed as binding. Here is the method:
All binding data were collected on a ProteOn optical biosensor (BioRad, Hercules Calif.). 12:0 LPA-thiol and 18:0 LPA-thiol were coupled to a maleimide modified GLC sensor chip (Cat. No 176-5011). First, the GLC chip was activated with an equal mixture of sulfo-NHS/EDC for seven minutes followed by a 7 minute blocking step with ethyldiamine. Next sulfo-MBS (Pierce Co., cat #22312) was passed over the surfaces at a concentration of 0.5 mM in HBS running buffer (10 mM HEPES, 150 mM NaCl, 0.005% tween-20, pH 7.4). LPA-thiol was diluted into the HBS running buffer to a concentration of 10, 1 and 0.1 uM and injected for 7 minutes producing 3 different density LPA surfaces (˜100, ˜300 and ˜1400 RU). Next, binding data for the humanized antibodies was collected using a 3-fold dilution series starting with 25 nM as the highest concentration (original stocks were each diluted 1 to 100). Surfaces were regenerated with a 10 second pulse of 100 mM HCl. All data were collected at 25° C. Controls were processed using a reference surface as well as blank injections. […] In order to extract estimates of the binding constants, data from the varying antibody concentrations were globally fit using 1-site and 2-site models. This produced estimates of the affinity for the bivalent (site 1) and monovalent site (site 2).

1 molecule from patent publication US8604172B2, “Humanized antibody compositions and methods for binding lysophosphatidic acid” (Lpath, Inc., priority 2009, dated 2013) can be followed below.

Read-outs that look alike come from different tables or passages of the source. Marks after values point to notes of the source that are not given here.

Usually half-life stands for the time needed for the level to fall by half in the phase considered. Low readings indicate fast loss, high ones slow loss.

B1: LT3000: Murine anti-LPA monoclonal antibody clone B7, IgG1k, renamed Lpathomab, also known as LT3000; hybridoma 504B7.1, ATCC PTA-8420 (antibody, V domains shown)
VH: QVQLQQSGAELVRPGTSVKVSCKASGYGFINYLIEWIKQRPGQGLEWIGLINPGSDYTNYNENFKGKATLTADKSSSTAYMHLSSLTSEDSAVYFCARRFGYYGSGNYFDYWGQGTTLTVSS
VL: DVVMTQTPLSLPVSLGDQASISCTSGQSLVHINGNTYLHWYLQKPGQSPKLLIYKVSNLFSGVPDRFSGSGSGTDFTLKISRVEAEDLGVYFCSQSTHFPFTFGTGTKLEIK
With B1, the “binding affinity for other bioactive lipids and proteins” value in data set [1] is recorded as “no binding affinity”. In data set [2], the “MI, 16:0 LPA” value is given as 62.9%. The “MI (%), S1P” value in data set [3] was determined as 2.7%. Further, the “MI, 14:0 LPA” value in data set [4] is 61.3%. The “time until fully distributed to the blood” value in [5] (i.p. administration) lay within 6 to 12 h. The molecule further displayed a half-life in data set [5] (i.v. administration, listed as murine antibody) of approximately 96 h. Further, the “Migration, % Inhibition (over LPA taken as 100)” value in the data set on SKOV3 cell migration was 35* %. Besides, in the data set on B16-F10 murine melanoma, the “metastatic spread of B16-F10 cells to lungs” value was “reduced”. Moreover, in the data set “Thermostability (Tm)” (10 min at 60-80° C., LPA binding by direct ELISA), the Tm stood at 67 °C. The “Apparent Tm” value in “Thermostability (Tm)” (pH 7.4) was found to be 67 °C at pH 7.4. Moreover, the Kd in data set [6] (first value (site 1, bivalent), read-out: KD (C12)) worked out at 0.027 nM; in data set [6] (value in parentheses (site 2, monovalent), read-out: KD (C12), value in parentheses), 0.007 nM.
